A short description of this data set: protein stability index of a GFP-peptide fusion (GPS, HEK-293T) (PSI 1-6); higher = more stable. The conditions noted are these: c terminus: a fixed tail appended.

± gives the standard deviation.
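Further: 24-mer peptide tiles fused after GFP, lentivirally expressed, FACS-sorted into six equal bins by GFP/DsRed ratio, decoded by Illumina sequencing, PSI is the read-weighted mean bin number.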

For the sequence LEFRKSMYEEEINETRRKHETRLV [LMNB1], the protein stability index is, setting by setting: (treatment: DMSO) 4.02 ± 0.21; (treatment: MLN4924 1 uM, 8 h) 4.06 ± 0.25.

Consider DEPVCGRPLGIRAGPNGTLFVADA [APMAP], for which the protein stability index is, setting by setting: (treatment: DMSO) 3.83 ± 0.22; (treatment: MLN4924 1 uM, 8 h) 4.03 ± 0.27.

In turn, EDEEPQEPNRLETGEAGEELDLRL [RTN2] registered a protein stability index (treatment: DMSO) of 5.73 ± 0.12 and a protein stability index (treatment: MLN4924 1 uM, 8 h) of 5.52 ± 0.4.

For GECRQMSSSSQIGNDSFQLQVTED [CLCN6], the protein stability index was 5.06 ± 0.22 (treatment: DMSO) and 5.09 ± 0.25 (treatment: MLN4924 1 uM, 8 h).

Turning to SMHKYQPRLHIVKADENNGFGSKN [TBX5], the protein stability index by setting is: (treatment: DMSO) 3.94 ± 0.4; (treatment: MLN4924 1 uM, 8 h) 4.24 ± 0.33.

Consider LHRESSNFDSIYICPSTFACAQLA [HDAC6], for which the protein stability index is, setting by setting: (treatment: DMSO) 2.15 ± 0.46; (treatment: MLN4924 1 uM, 8 h) 2.11 ± 0.16.

In the case of DFQGRILSVDPEEEREEGPPRIPQ [RHOBTB1], the protein stability index reads like this: (treatment: DMSO) 5.29 ± 0.31; (treatment: MLN4924 1 uM, 8 h) 5.22 ± 0.22.

For KPLYPDDYVHISSKPCDLHCTTVD [ADAMTSL2], the protein stability index is 4.29 ± 0.35 (treatment: DMSO) and 4.21 ± 0.36 (treatment: MLN4924 1 uM, 8 h).

Turning to TVILIESTNEITYGLPIMVTLMVA [CLCN6], the protein stability index is, setting by setting: (treatment: DMSO) 3.47 ± 0.47; (treatment: MLN4924 1 uM, 8 h) 3.32 ± 0.29.

For EEHESGIEQFSESHAIHVEEQSDQ [IQUB], the protein stability index is, setting by setting: (treatment: DMSO) 5.61 ± 0.12; (treatment: MLN4924 1 uM, 8 h) 5.56 ± 0.11.

LSAASPDTGHDSDKSDQSLPNASA [TRAF3IP2]: the protein stability index reads like this: (treatment: DMSO) 5.53 ± 0.28; (treatment: MLN4924 1 uM, 8 h) 5.51 ± 0.13.

Take CEDLDELHYQDTDSDVPEQRDSKC [MYBL2]: the protein stability index reads like this: (treatment: DMSO) 5.65 ± 0.37; (treatment: MLN4924 1 uM, 8 h) 5.54 ± 0.24.

With RKVCVGGKRRKDEISVDSLDFSKK [PPP2R2B], the protein stability index was determined as 4.33 ± 0.26 (treatment: DMSO) and 4.31 ± 0.27 (treatment: MLN4924 1 uM, 8 h).

On to VSATKAEAEKDGVKVPTTLAEYCI [UBE2R2], for which the protein stability index reads like this: (treatment: DMSO) 4.5 ± 0.33; (treatment: MLN4924 1 uM, 8 h) 4.5 ± 0.28.

In turn, AACTRALESSEELLETANQTLQAM [FSD1] showed a protein stability index (treatment: DMSO) of 5.14 ± 0.16 and a protein stability index (treatment: MLN4924 1 uM, 8 h) of 4.84 ± 0.38.

For the sequence ALWCSGHLNGHAMCQTKHSPWADG [ADAMTS4], the protein stability index (treatment: DMSO) stood at 2.48 ± 0.38 and the protein stability index (treatment: MLN4924 1 uM, 8 h) came out at 2.27 ± 0.47.

AVMRGQILNLTQALKDNKSPLHLV [PI4K2A]: the protein stability index was determined as 2.33 ± 0.33 (treatment: DMSO) and 2.3 ± 0.24 (treatment: MLN4924 1 uM, 8 h).

The sequence LRGAKAFRLPGLSRREREPEPPAA [FCHO1] returned a protein stability index (treatment: DMSO) of 4.37 ± 0.28 and a protein stability index (treatment: MLN4924 1 uM, 8 h) of 4.14 ± 0.29.

QGQPDPAPRPGPPAGTPPPTARHF [MOSPD3] displayed a protein stability index (treatment: DMSO) of 3.77 ± 0.21 and a protein stability index (treatment: MLN4924 1 uM, 8 h) of 3.65 ± 1.1.

As for MGTRDDEYDYLFKVVLIGDSGVGK [RAB11A], the protein stability index reads like this: (treatment: DMSO) 2.27 ± 0.41; (treatment: MLN4924 1 uM, 8 h) 2.44 ± 0.35.

VETLVKKKIPIISNAMLVGDKLKF [ACSBG2] showed a protein stability index (treatment: DMSO) of 2.27 ± 0.38 and a protein stability index (treatment: MLN4924 1 uM, 8 h) of 2.61 ± 0.27.

For the sequence PDREKGFHLDVEDYLSGVLILASE [TSN], the protein stability index was found to be 2.14 ± 0.1 (treatment: DMSO) and 2.81 ± 0.2 (treatment: MLN4924 1 uM, 8 h).

Turning to LESLRTAQKTALLQDGRRKVHYLF [DPCD], the protein stability index was determined as 2.19 ± 0.22 (treatment: DMSO) and 2.45 ± 0.37 (treatment: MLN4924 1 uM, 8 h).

DTVEIREVHERNDGIDPFPLLMNR [EFHC1] showed a protein stability index (treatment: DMSO) of 4.3 ± 0.15 and a protein stability index (treatment: MLN4924 1 uM, 8 h) of 4.42 ± 0.25.

Take IQDKLFQVAKREREAATKHSKASL [CHCHD6]: the protein stability index by setting is: (treatment: DMSO) 3.86 ± 0.47; (treatment: MLN4924 1 uM, 8 h) 4.14 ± 0.22.

As for SFELLVRFFACPSKATFSRNIMNL [KCNA3], the protein stability index amounted to 3.16 ± 0.46 (treatment: DMSO) and 2.96 ± 0.25 (treatment: MLN4924 1 uM, 8 h).

Take GRGPPSEPVLTQTSEQAPSSAPRD [PTPRD]: the protein stability index was 5.74 ± 0.22 (treatment: DMSO) and 5.34 ± 0.31 (treatment: MLN4924 1 uM, 8 h).

AAALLSNTTCQTENRLSVFFSVIF [PTGFR] registered a protein stability index (treatment: DMSO) of 2.43 ± 0.35 and a protein stability index (treatment: MLN4924 1 uM, 8 h) of 2.33 ± 0.18.

With ARMGFNASSMLRKSQLGFLNVTNY [DCAF4], the protein stability index (treatment: DMSO) is 2.26 ± 0.13 and the protein stability index (treatment: MLN4924 1 uM, 8 h) turned out to be 2.24 ± 0.14.

In the case of APLSNGLCCAFSTDGSVLAAGTHD [WSB1], the protein stability index (treatment: DMSO) was determined as 4.06 ± 0.43 and the protein stability index (treatment: MLN4924 1 uM, 8 h) worked out at 3.9 ± 0.24.

Consider KGVDFQKFCMNGAALCALGKDCFL [ETS1], for which the protein stability index reads like this: (treatment: DMSO) 2.62 ± 0.4; (treatment: MLN4924 1 uM, 8 h) 2.09 ± 0.28.

As for IGTQGPLENTYRDFWLMVWEQKVL [PTPN9], the protein stability index came to 2.31 ± 0.24 (treatment: DMSO) and 1.79 ± 0.29 (treatment: MLN4924 1 uM, 8 h).

With VLALRNMKNLLFSEMWDIFLVRLL [MFSD9], the protein stability index by setting is: (treatment: DMSO) 2.13 ± 0.44; (treatment: MLN4924 1 uM, 8 h) 2.14 ± 0.49.

KRNFISSKSKQPAGHRRPAGGIRE [C22orf31]: the protein stability index runs as follows: (treatment: DMSO) 4.07 ± 0.11; (treatment: MLN4924 1 uM, 8 h) 3.99 ± 0.22.

Consider KLIATSNKPAVKLLYNRSNNKYSY [KCTD10], for which the protein stability index was 2.23 ± 0.14 (treatment: DMSO) and 2.49 ± 0.23 (treatment: MLN4924 1 uM, 8 h).

As to FGSQQSPIDVVEKYDPKTQEWSFL [KLHL12], the protein stability index runs as follows: (treatment: DMSO) 3.44 ± 0.34; (treatment: MLN4924 1 uM, 8 h) 3.65 ± 0.39.
